# Patent EP4631523A2
# B1: COR-001 antibody (antibody, human IgG1, kappa, V domains shown)
# VH: EVQLVESGGGLVQPGGSLRLSCAASGFTISSNYMIWVRQAPGKGLEWVSDLYYYAGDTYYADSVKGRFTMSRDISKNTVYLQMNSLRAEDTAVYYCARWADDHPPWIDLWGRGTLVTVSS
# VL: DIQMTQSPSTLSASVGDRVTITCRASQGISSWLAWYQQKPGKAPKVLIYKASTLESGVPSRFSGSGSGTEFTLTISSLQPDDFATYYCQQSWLGGSFGQGTKLEIKR
# Columns and labels:
# [1] = target: interleukin 6 (IL-6) (UniProt P05231); assay: IL-6 binding ELISA; 5±3°C, 0 months
# [2] = target: interleukin 6 (IL-6) (UniProt P05231); assay: IL-6 binding ELISA; 25±2°C, 3 months
# [3] = target: interleukin 6 (IL-6) (UniProt P05231); assay: IL-6 binding ELISA; 40±2°C, 3 months
# [4] = target: interleukin 6 (IL-6) (UniProt P05231); assay: IL-6 binding ELISA; 5±3°C, 6 months
# [5] = target: interleukin 6 (IL-6) (UniProt P05231); assay: IL-6 binding ELISA; 40±2°C, 3 months; remark: listed apart in the source
# [6] = target: interleukin 6 (IL-6) (UniProt P05231); assay: IL-6 binding ELISA; 25±2°C, 1 month
# [7] = target: interleukin 6 (IL-6) (UniProt P05231); assay: IL-6 binding ELISA; 25±2°C, 6 months
# [8] = target: interleukin 6 (IL-6) (UniProt P05231); assay: IL-6 binding ELISA; 5±3°C, 3 months
# [9] = target: interleukin 6 (IL-6) (UniProt P05231); assay: IL-6 binding ELISA; 5±3°C, 12 months
# [10] = target: interleukin 6 (IL-6) (UniProt P05231); assay: IL-6 binding ELISA; 25±2°C, 3 months; remark: listed apart in the source
# [11] = target: interleukin 6 (IL-6) (UniProt P05231); assay: IL-6 binding ELISA; 5±3°C, 0 months; remark: listed apart in the source
# [12] = target: interleukin 6 (IL-6) (UniProt P05231); assay: IL-6 binding ELISA, relative to a Phase I DS lot; 50 mg/mL formulation without methionine, 12 months at 2 to 8°C
# [13] = target: interleukin 6 (IL-6) (UniProt P05231); assay: IL-6 binding ELISA; 25±2°C, 1 month; remark: listed apart in the source
# [14] = target: interleukin 6 (IL-6) (UniProt P05231); assay: IL-6 binding ELISA; 25±2°C, 0 months
# [15] = target: interleukin 6 (IL-6) (UniProt P05231); assay: IL-6 binding ELISA; 5±3°C, 3 months; remark: listed apart in the source
# [16] = target: interleukin 6 (IL-6) (UniProt P05231); assay: IL-6 binding ELISA; 5±3°C, 3 months; remark: listed apart in the source
# [17] = target: interleukin 6 (IL-6) (UniProt P05231); assay: IL-6 binding ELISA; 5±3°C, 12 months; remark: listed apart in the source
# [18] = target: interleukin 6 (IL-6) (UniProt P05231); assay: IL-6 binding ELISA; 40±2°C, 0 months
# [19] = target: interleukin 6 (IL-6) (UniProt P05231); assay: IL-6 binding ELISA; 25±2°C, 3 months; remark: listed apart in the source
# [20] = target: interleukin 6 (IL-6) (UniProt P05231); assay: IL-6 binding ELISA; 40±2°C, 0 months; remark: listed apart in the source
# [21] = target: interleukin 6 (IL-6) (UniProt P05231); assay: IL-6 binding ELISA, relative to a Phase I DS lot; 20 mg/mL formulation without methionine, T0 (frozen aliquot)
# [22] = target: interleukin 6 (IL-6) (UniProt P05231); assay: IL-6 binding ELISA; 25±2°C, 6 months; remark: listed apart in the source
# [23] = target: interleukin 6 (IL-6) (UniProt P05231); assay: IL-6 binding ELISA; 5±3°C, 9 months
# [24] = target: interleukin 6 (IL-6) (UniProt P05231); assay: IL-6 binding ELISA, relative to a Phase I DS lot; 50 mg/mL formulation without methionine, T0 (frozen aliquot)
# [25] = target: interleukin 6 (IL-6) (UniProt P05231); assay: IL-6 binding ELISA; 40±2°C, 1 month
# [26] = target: interleukin 6 (IL-6) (UniProt P05231); assay: IL-6 binding ELISA; 40±2°C, 1 month; remark: listed apart in the source
# [27] = target: interleukin 6 (IL-6) (UniProt P05231); assay: IL-6 binding ELISA; 40±2°C, 1 month; remark: listed apart in the source
# [28] = target: interleukin 6 (IL-6) (UniProt P05231); assay: IL-6 binding ELISA; 25±2°C, 6 months; remark: listed apart in the source
# [29] = target: interleukin 6 (IL-6) (UniProt P05231); assay: IL-6 binding ELISA; 25±2°C, 6 months; remark: listed apart in the source
# [30] = target: interleukin 6 (IL-6) (UniProt P05231); assay: IL-6 binding ELISA; 5±3°C, 3 months; remark: listed apart in the source
# [31] = target: interleukin 6 (IL-6) (UniProt P05231); assay: IL-6 binding ELISA; 40±2°C, 0 months; remark: listed apart in the source
# [32] = target: interleukin 6 (IL-6) (UniProt P05231); assay: IL-6 binding ELISA; 25±2°C, 0 months; remark: listed apart in the source
# UniProt P05231, sequence (P05231 30-212 limits assumed): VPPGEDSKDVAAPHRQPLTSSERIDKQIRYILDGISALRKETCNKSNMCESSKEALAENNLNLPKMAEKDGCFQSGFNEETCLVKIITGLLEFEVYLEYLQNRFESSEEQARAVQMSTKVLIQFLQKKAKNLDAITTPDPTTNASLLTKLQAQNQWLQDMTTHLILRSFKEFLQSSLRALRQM
binder,measurement,setting,value
B1,IL-6 binding ELISA (% of Reference Standard),[1],94%
same,IL-6 binding ELISA (% of Reference Standard),[2],91%
same,IL-6 binding ELISA (% of Reference Standard),[3],94%
same,IL-6 binding ELISA (% of Reference Standard),[4],92%
same,IL-6 binding ELISA (% of Reference Standard),[5],86%
same,IL-6 binding ELISA (% of Reference Standard),[6],95%
same,IL-6 binding ELISA (% of Reference Standard),[7],82%
same,IL-6 binding ELISA (% of Reference Standard),[8],96%
same,IL-6 binding ELISA (% of Reference Standard),[9],95%
same,IL-6 binding ELISA (% of Reference Standard),[10],84%
same,IL-6 binding ELISA (% of Reference Standard),[11],97%
same,IL-6 binding ELISA (% of assay control),[12],89%
same,IL-6 binding ELISA (% of Reference Standard),[13],98%
same,IL-6 binding ELISA (% of Reference Standard),[14],91%
same,IL-6 binding ELISA (% of Reference Standard),[15],93%
same,IL-6 binding ELISA (% of Reference Standard),[16],83%
same,IL-6 binding ELISA (% of Reference Standard),[17],98%
same,IL-6 binding ELISA (% of Reference Standard),[18],94%
same,IL-6 binding ELISA (% of Reference Standard),[19],90%
same,IL-6 binding ELISA (% of Reference Standard),[20],97%
same,IL-6 binding ELISA (% of assay control),[21],61%
same,IL-6 binding ELISA (% of Reference Standard),[22],88%
same,IL-6 binding ELISA (% of Reference Standard),[23],98%
same,IL-6 binding ELISA (% of assay control),[24],70%
same,IL-6 binding ELISA (% of Reference Standard),[25],89%
same,IL-6 binding ELISA (% of Reference Standard),[26],95%
same,IL-6 binding ELISA (% of Reference Standard),[27],92%
same,IL-6 binding ELISA (% of Reference Standard),[28],81%
same,IL-6 binding ELISA (% of Reference Standard),[29],100%
same,IL-6 binding ELISA (% of Reference Standard),[30],92%
same,IL-6 binding ELISA (% of Reference Standard),[31],103%
same,IL-6 binding ELISA (% of Reference Standard),[32],96%
